From publication PMC11648230, “Structure–function analysis of tRNA t^6A-catalysis, assembly, and thermostability of Aquifex aeolicus TsaD2B2 tetramer in complex with TsaE” (The Journal of Biological Chemistry, 2024) come the findings set out here.

Series [1] deals with T1, Thermotoga maritima TsaDB dimer variant (Thermotoga maritima, UniProt Q9WXZ2 1-327; Q9WZX7 2-206, E20A | D21A | L22A | E24A | S26A | Y27A | T28A | E30A | K31A).
T1 construct: TsaD, Thermotoga maritima, UniProt Q9WXZ2; TsaB, Thermotoga maritima, UniProt Q9WZX7; Preformed complex of m11 and m13; also called T. maritima TsaDB; TmTsaDB; source: E. coli BL21 (DE3) or Rosetta pLysS, co-expressed, purified (Ni-NTA, SEC); copies: 1 + 1
The series can be described thus: native gel or EMSA; native agarose-glycine gel (1.6%), 15 μg TsaD2B2 or variant and two-fold TsaE; gel and samples with 1 mM ATP and 2 mM MgCl2. The note with it: both partners purified.

Series [2] concerns the molecule itself. The series can be described thus: SEC; co-purified TsaD–TsaB complexes and variants; elution profiles compared with one another (tetramer against dimer); Superdex 200, after Ni-NTA.

T1 sequence (Q9WXZ2 whole entry, stated change not applied, one chain of several): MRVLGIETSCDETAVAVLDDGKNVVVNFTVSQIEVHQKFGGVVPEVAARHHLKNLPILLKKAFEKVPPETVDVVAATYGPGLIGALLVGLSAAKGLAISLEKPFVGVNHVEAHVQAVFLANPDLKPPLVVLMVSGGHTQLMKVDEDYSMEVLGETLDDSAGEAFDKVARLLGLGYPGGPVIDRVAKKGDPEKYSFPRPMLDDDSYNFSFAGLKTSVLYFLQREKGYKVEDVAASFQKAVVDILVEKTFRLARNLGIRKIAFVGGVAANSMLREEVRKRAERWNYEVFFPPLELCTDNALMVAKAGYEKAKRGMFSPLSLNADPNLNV

B1: Aquifex aeolicus TsaE (enzyme, UniProt O67011 1-133, looked up)
chain: MELLKEVILESEEDTYKLAEEIAQLLKGSEVICLRGTLGAGKTTFVKALAKALKVKNPSAVRSPTFTLVNEYETDKGKLIHIDLYRVPDFDYSEFIGEGILAVEWEERDKPCDIILEIEILDENKRKVRIYRK
notes: TsaE, Aquifex aeolicus, UniProt O67011; Monomer by SEC; also called AaTsaE; YjeE; source: E. coli BL21 (DE3) or Rosetta pLysS, purified (Ni-NTA, SEC)
For the molecule B1, the binding result in series [1] is listed as “binds”.

B2: Thermotoga maritima TsaB (natural protein)
chain: NVLALDTSQRIRIGLRKGEDLFEISYTGEKKHAEILPVVVKKLLDELDLKVKDLDVVGVGIGPGGLTGLRVGIATVVGLVSPYDIPVAPLNSFEMTAKSCPADGVVLVARRARKGYHYCAVYLKDKGLNPLKEPSVVSDEELEEITKEFSPKIVLKDDLLISPAVLVEESERLFREKKTIHYYEIEPLYLQKSIAELNWEKKKRG
notes: TsaB, Thermotoga maritima, UniProt Q9WZX7; also called TmTsaB; source: E. coli BL21 (DE3) or Rosetta pLysS, co-expressed with TsaD (pET21a–BC14), purified (Ni-NTA, SEC)
Turning to B2, the binding result in series [2] is “binds”.
